28 molecules from article doi:10.1101/2024.01.09.574565, “Human coronavirus HKU1 recognition of the TMPRSS2 host receptor” (bioRxiv, 2024) can be followed below.

The chains are these.
B1: HKU1 spike (S) glycoprotein: S357A (protein)
parent chain: MLLIIFILPTTLAVIGDFNCTNFAINDLNTTVPRISEYVVDVSYGLGTYYILDRVYLNTTILFTGYFPKSGANFRDLSLKGTTYLSTLWYQKPFLSDFNNGIFSRVKNTKLYVNKTLYSEFSTIVIGSVFINNSYTIVVQPHNGVLEITACQYTMCEYPHTICKSKGSSRNESWHFDKSEPLCLFKKNFTYNVSTDWLYFHFYQERGTFYAYYADSGMPTTFLFSLYLGTLLSHYYVLPLTCNAISSNTDNETLQYWVTPLSKRQYLLKFDNRGVITNAVDCSSSFFSEIQCKTKSLLPNTGVYDLSGFTVKPVATVHRRIPDLPDCDIDKWLNNFNVPSPLNWERKIFSNCNFNLSTLLRLVHTDSFSCNNFDESKIYGSCFKSIVLDKFAIPNSRRSDLQLGSSGFLQSSNYKIDTTSSSCQLYYSLPAINVTINNYNPSSWNRRYGFNNFNLSSHSVVYSRYCFSVNNTFCPCAKPSFASSCKSHKPPSASCPIGTNYRSCESTTVLDHTDWCRCSCLPDPITAYDPRSCSQKKSLVGVGEHCAGFGVDEEKCGVLDGSYNVSCLCSTDAFLGWSYDTCVSNNRCNIFSNFILNGINSGTTCSNDLLQPNTEVFTDVCVDYDLYGITGQGIFKEVSAVYYNSWQNLLYDSNGNIIGFKDFVTNKTYNIFPCYAGRVSAAFHQNASSLALLYRNLKCSYVLNNISLTTQPYFDSYLGCVFNADNLTDYSVSSCALRMGSGFCVDYNSPSSSSSRRKRRSISASYRFVTFEPFNVSFVNDSIESVGGLYEIKIPTNFTIVGQEEFIQTNSPKVTIDCSLFVCSNYAACHDLLSEYGTFCDNINSILDEVNGLLDTTQLHVADTLMQGVTLSSNLNTNLHFDVDNINFKSLVGCLGPHCGSSSRSFFEDLLFDKVKLSDVGFVEAYNNCTGGSEIRDLLCVQSFNGIKVLPPILSESQISGYTTAATVAAMFPPWSAAAGIPFSLNVQYRINGLGVTMDVLNKNQKLIATAFNNALLSIQNGFSATNSALAKIQSVVNSNAQALNSLLQQLFNKFGAISSSLQEILSRLDALEAQVQIDRLINGRLTALNAYVSQQLSDISLVKFGAALAMEKVNECVKSQSPRINFCGNGNHILSLVQNAPYGLLFMHFSYKPISFKTVLVSPGLCISGDVGIAPKQGYFIKHNDHWMFTGSSYYYPEPISDKNVVFMNTCSVNFTKAPLVYLNHSVPKLSDFESELSHWFKNQTSIAPNLTLNLHTINATFLDLYYEMNLIQESIKSLNNSYINLKDIGTYEMYVKWPWYVWLLISFSFIIFLVLLFFICCCTGCGSACFSKCHNCCDEYGGHHDFVIKTSHDD
B2: HKU1 isolate N1 (genotype A) RBD, wildtype, without avi tag (domain or fragment)
chain: RIPDLPDCDIDKWLNNFNVPSPLNWERKIFSNCNFNLSTLLRLVHTDSFSCNNFDESKIYGSCFKSIVLDKFAIPNSRRSDLQLGSSGFLQSSNYKIDTTSSSCQLYYSLPAINVTINNYNPSSWNRRYGFNNFNLSSHSVVYSRYCFSVNNTFCPCAKPSFASSCKSHKPPSASCPIGTNYRSCESTTVLDHTDWCRCSCLPDPITAYDPRSCSQKKSLVGVGEHCAGFGVDEEKCGVLDGSYNVSCLCSTDAFLGWSYDTCVSNNRCNIFSNFILNGINSGTTCSNDLLQPNT
notes: also called HKU1 RBD; HKU1 RBD (without avi tag); not shown: His8, C-terminal, kept

Target in one data set: not given
Assay: not given
The conditions noted are these: glycan lost.
As for B1, the “other: neutralisation sensitivity, other: geometric mean ID50 dilution” value is on record as “increases”.

For a further data set, the target named is human TMPRSS2 ectodomain, active (S441), with the C379-T447C disulfide bond (human, UniProt O15393 106-492, T447C). The data set can be described thus: enzyme inhibition kinetics (fluorogenic peptide substrate); 5 nM TMPRSS2 with serial dilutions of Boc-QAR-AMC in the presence of 215, 72 or 24 nM HKU1 RBD, 2 min preincubation, 22 °C; fit of competitive inhibition. The conditions noted are these: both partners purified.
In the case of B2, the Ki (in general, a dissociation constant, usually derived from enzyme kinetics or from competition with a known ligand) was 38 ± 5 nM.

For another data set, the target named is human TMPRSS2 ectodomain harboring the S441A residue substitution and the C379-T447C disulfide bond (UniProt O15393). The data set can be described thus: BLI. To be noted: parent: est. 0.54; read off a plot.
Regarding “HKU1 isolate N1 (genotype A) RBD, wildtype, avi-tagged and biotinylated (from UniProt Q5MQD0) E505A”, the response amounted to 0.37 nm.

As to “HKU1 isolate N1 (genotype A) RBD, wildtype, avi-tagged and biotinylated (from UniProt Q5MQD0) H488A”, the response is 0.17 nm.

On to “HKU1 isolate N1 (genotype A) RBD, wildtype, avi-tagged and biotinylated (from UniProt Q5MQD0) Y528A”, for which the response worked out at 0.11 nm.

For the next data set, the target named is HKU1 isolate N1 (genotype A) RBD, wildtype, avi-tagged and biotinylated (UniProt Q5MQD0). The data set can be described thus: BLI. To be noted: parent: est. 0.51; read off a plot.
On to “human TMPRSS2 ectodomain, active (S441), with the C379-T447C disulfide bond (from UniProt O15393) R470A”, for which the response came out at 0.15 nm.

As to “human TMPRSS2 ectodomain, active (S441), with the C379-T447C disulfide bond (from UniProt O15393) Y414A”, the response was 0.11 nm.

For “human TMPRSS2 ectodomain, active (S441), with the C379-T447C disulfide bond (from UniProt O15393) Y469A”, the response is 0.36 nm.

Staying with this data set, now noted: read off a plot.
Take “human TMPRSS2 ectodomain, active (S441), with the C379-T447C disulfide bond (from UniProt O15393) A468P”: the percent of parent came out at 57 % WT.

“human TMPRSS2 ectodomain, active (S441), with the C379-T447C disulfide bond (from UniProt O15393) D417N”: the percent of parent came to 7.5 % WT.

Regarding “human TMPRSS2 ectodomain, active (S441), with the C379-T447C disulfide bond (from UniProt O15393) K340D”, the percent of parent was found to be 38 % WT.

For “human TMPRSS2 ectodomain, active (S441), with the C379-T447C disulfide bond (from UniProt O15393) L419A”, the percent of parent was 2.7 % WT.

For the molecule “human TMPRSS2 ectodomain, active (S441), with the C379-T447C disulfide bond (from UniProt O15393) L419M”, the percent of parent came to 30 % WT.

With “human TMPRSS2 ectodomain, active (S441), with the C379-T447C disulfide bond (from UniProt O15393) R409K”, the percent of parent was 36 % WT.

For the molecule “human TMPRSS2 ectodomain, active (S441), with the C379-T447C disulfide bond (from UniProt O15393) R409T”, the percent of parent turned out to be 58 % WT.

Take “human TMPRSS2 ectodomain, active (S441), with the C379-T447C disulfide bond (from UniProt O15393) R413K”: the percent of parent turned out to be 52 % WT.

“human TMPRSS2 ectodomain, active (S441), with the C379-T447C disulfide bond (from UniProt O15393) R413V”: the percent of parent turned out to be 64 % WT.

Regarding “human TMPRSS2 ectodomain, active (S441), with the C379-T447C disulfide bond (from UniProt O15393) R470K”, the percent of parent came to 2.1 % WT.

In the case of “human TMPRSS2 ectodomain, active (S441), with the C379-T447C disulfide bond (from UniProt O15393) S412N”, the percent of parent is 77 % WT.

With “human TMPRSS2 ectodomain, active (S441), with the C379-T447C disulfide bond (from UniProt O15393) S441A”, the percent of parent was found to be 95 % WT.

Turning to “human TMPRSS2 ectodomain, active (S441), with the C379-T447C disulfide bond (from UniProt O15393) S463F”, the percent of parent came out at 2.3 % WT.

Consider “human TMPRSS2 ectodomain, active (S441), with the C379-T447C disulfide bond (from UniProt O15393) S463T”, for which the percent of parent came to 2.7 % WT.

For “human TMPRSS2 ectodomain, active (S441), with the C379-T447C disulfide bond (from UniProt O15393) S463Y”, the percent of parent was found to be 2.3 % WT.

For the molecule “human TMPRSS2 ectodomain, active (S441), with the C379-T447C disulfide bond (from UniProt O15393) T341S”, the percent of parent stood at 61 % WT.

With “human TMPRSS2 ectodomain, active (S441), with the C379-T447C disulfide bond (from UniProt O15393) V415I”, the percent of parent stood at 47 % WT.

In the case of “human TMPRSS2 ectodomain, active (S441), with the C379-T447C disulfide bond (from UniProt O15393) Y414L”, the percent of parent turned out to be 2.2 % WT.

For the molecule “human TMPRSS2 ectodomain, active (S441), with the C379-T447C disulfide bond (from UniProt O15393) Y414S”, the percent of parent is 14 % WT.

Regarding “human TMPRSS2 ectodomain, active (S441), with the C379-T447C disulfide bond (from UniProt O15393) Y469N”, the percent of parent turned out to be 5.7 % WT.
